Measured values as given in patent publication US20220229068A1, “DETECTION OF PROTEIN TO PROTEIN INTERACTIONS” (THE GOVERNING COUNCIL OF THE UNIVERSITY OF TORONTO, priority 2019, published 2022).

Key:
Assay in all cases: SIMPL ELISA, bait-IN/prey-CIC
[1] = biological target: HBB (prey, CIC format) (human) (UniProt P68871)
[2] = biological target: T1, ORC4 (prey, CIC format) (human) (UniProt O43929)
T1 sequence (looked up): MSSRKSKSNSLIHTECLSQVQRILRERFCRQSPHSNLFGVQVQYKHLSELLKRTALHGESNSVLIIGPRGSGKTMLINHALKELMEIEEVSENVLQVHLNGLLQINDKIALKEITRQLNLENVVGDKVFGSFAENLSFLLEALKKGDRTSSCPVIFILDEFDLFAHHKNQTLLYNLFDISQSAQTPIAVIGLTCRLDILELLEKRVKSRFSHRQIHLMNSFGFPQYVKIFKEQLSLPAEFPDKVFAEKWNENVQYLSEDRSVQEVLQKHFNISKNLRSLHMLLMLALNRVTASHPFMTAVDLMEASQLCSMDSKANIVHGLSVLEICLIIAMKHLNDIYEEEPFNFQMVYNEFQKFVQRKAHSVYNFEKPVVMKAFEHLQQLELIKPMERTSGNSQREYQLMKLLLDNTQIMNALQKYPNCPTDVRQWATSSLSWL

[3] = biological target: UBE2I (prey, CIC format) (human) (UniProt P63279)
UBE2I (prey, CIC format) (human), sequence (P63279 whole entry): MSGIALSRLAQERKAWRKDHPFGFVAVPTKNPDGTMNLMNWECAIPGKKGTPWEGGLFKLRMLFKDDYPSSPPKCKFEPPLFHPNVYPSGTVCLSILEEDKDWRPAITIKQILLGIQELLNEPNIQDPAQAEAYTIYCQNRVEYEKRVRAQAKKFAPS

[4] = biological target: T2, MCM10 (prey, CIC format) (human) (UniProt Q7L590)
T2 sequence (looked up): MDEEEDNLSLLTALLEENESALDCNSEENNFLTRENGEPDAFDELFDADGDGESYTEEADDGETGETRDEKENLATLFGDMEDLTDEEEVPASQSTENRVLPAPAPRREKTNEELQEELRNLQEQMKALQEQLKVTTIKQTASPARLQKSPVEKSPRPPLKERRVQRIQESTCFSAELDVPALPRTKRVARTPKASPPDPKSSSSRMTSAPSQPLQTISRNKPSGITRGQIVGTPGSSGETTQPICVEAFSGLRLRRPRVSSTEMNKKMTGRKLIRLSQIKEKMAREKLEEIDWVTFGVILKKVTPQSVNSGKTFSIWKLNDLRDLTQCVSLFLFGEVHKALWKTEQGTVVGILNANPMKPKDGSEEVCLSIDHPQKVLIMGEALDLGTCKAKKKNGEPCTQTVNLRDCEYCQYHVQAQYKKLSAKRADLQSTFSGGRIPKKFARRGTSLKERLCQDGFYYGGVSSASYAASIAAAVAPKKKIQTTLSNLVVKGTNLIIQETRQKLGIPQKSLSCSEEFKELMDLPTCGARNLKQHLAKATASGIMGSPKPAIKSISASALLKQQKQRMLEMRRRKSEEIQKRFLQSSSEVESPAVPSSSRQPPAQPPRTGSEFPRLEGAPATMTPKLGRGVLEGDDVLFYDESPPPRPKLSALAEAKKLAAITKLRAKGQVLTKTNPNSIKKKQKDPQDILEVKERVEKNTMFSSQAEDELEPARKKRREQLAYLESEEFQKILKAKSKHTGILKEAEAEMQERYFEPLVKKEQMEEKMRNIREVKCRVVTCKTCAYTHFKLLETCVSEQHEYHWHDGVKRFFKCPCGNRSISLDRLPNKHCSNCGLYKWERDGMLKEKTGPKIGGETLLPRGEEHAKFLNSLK

[5] = biological target: T3, FRS2 (prey, CIC format) (human) (UniProt Q8WU20)
T3 sequence (looked up): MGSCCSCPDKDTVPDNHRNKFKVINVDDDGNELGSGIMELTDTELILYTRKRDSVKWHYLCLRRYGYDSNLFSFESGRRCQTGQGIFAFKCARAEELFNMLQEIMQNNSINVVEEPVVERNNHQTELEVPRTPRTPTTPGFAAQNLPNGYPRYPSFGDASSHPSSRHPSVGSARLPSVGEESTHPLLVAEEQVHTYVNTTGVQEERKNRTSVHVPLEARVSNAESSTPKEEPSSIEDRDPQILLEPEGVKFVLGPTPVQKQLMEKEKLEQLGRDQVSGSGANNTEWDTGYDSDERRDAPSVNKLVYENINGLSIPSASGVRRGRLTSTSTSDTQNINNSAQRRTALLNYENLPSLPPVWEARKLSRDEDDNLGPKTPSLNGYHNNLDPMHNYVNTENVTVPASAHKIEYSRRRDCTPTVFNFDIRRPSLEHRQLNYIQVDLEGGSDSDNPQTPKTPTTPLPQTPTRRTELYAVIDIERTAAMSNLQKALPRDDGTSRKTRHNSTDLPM

[6] = biological target: EIF3E (prey, CIC format) (human) (UniProt P60228)
EIF3E (prey, CIC format) (human), sequence (P60228 whole entry): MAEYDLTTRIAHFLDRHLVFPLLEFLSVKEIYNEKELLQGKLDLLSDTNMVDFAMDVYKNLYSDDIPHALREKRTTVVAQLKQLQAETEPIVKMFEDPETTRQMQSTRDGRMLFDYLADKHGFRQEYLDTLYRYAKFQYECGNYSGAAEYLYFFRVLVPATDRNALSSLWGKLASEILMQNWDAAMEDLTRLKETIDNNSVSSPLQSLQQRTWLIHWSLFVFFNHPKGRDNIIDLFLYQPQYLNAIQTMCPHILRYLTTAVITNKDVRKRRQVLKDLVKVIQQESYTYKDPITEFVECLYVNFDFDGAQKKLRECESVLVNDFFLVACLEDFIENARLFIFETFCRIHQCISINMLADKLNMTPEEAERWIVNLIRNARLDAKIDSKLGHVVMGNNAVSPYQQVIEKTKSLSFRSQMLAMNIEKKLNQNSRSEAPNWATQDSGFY

[7] = biological target: RELA (prey, CIC format) (human) (UniProt Q04206)
RELA (prey, CIC format) (human), sequence (Q04206 whole entry): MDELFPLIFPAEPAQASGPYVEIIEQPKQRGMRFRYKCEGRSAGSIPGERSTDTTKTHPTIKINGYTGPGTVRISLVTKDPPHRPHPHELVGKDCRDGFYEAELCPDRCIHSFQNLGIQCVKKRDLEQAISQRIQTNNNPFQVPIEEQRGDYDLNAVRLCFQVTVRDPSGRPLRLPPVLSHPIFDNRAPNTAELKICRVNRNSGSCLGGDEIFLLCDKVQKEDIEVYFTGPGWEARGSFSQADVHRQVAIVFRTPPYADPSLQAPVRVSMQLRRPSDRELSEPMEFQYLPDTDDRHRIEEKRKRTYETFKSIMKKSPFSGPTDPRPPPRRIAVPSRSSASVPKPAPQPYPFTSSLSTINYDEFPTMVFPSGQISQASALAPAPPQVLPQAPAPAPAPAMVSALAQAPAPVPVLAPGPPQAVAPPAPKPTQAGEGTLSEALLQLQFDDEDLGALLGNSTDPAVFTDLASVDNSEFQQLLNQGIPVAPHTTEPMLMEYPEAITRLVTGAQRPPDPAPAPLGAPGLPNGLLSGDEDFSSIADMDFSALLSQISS

[8] = biological target: T4, MAD1L1 (prey, CIC format) (human) (UniProt Q9Y6D9)
T4 sequence (looked up): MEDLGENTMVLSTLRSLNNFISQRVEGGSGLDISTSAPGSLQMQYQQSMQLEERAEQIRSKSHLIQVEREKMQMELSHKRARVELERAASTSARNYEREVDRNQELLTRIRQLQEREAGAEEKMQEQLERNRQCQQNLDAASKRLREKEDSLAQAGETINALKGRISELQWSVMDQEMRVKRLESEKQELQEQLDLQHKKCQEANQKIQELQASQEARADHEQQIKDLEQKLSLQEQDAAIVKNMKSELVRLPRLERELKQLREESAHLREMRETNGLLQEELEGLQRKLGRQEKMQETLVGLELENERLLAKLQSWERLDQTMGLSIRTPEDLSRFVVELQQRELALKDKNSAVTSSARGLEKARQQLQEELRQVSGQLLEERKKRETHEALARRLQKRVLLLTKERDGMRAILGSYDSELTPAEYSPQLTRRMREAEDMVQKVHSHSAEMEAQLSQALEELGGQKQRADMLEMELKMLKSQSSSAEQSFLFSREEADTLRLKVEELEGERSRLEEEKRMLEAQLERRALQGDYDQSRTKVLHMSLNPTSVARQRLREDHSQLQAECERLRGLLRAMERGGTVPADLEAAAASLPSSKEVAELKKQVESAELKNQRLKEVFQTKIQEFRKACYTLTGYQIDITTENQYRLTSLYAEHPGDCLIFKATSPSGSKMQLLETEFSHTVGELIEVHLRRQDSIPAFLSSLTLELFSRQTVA

[9] = biological target: T5, MCM5 (prey, CIC format) (human) (UniProt P33992)
T5 sequence (looked up): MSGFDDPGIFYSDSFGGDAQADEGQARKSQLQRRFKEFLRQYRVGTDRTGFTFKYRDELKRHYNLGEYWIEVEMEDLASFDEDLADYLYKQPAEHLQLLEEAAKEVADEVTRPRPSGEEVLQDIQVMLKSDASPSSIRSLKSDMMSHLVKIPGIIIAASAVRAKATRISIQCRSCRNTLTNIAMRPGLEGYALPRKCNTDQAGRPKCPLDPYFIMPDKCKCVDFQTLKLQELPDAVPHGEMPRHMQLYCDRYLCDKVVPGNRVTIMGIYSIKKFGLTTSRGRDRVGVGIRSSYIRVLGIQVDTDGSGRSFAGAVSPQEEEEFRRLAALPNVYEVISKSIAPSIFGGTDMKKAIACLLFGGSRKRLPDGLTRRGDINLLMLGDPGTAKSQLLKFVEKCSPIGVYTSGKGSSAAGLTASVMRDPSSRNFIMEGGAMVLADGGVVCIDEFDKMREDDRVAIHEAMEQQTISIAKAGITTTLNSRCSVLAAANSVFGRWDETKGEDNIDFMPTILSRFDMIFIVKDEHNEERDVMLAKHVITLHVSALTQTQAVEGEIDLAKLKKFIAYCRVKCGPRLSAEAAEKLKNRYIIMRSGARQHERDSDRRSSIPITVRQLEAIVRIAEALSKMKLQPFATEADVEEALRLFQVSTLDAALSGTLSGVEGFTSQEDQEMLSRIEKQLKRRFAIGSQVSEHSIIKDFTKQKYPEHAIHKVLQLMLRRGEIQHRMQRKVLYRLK

[10] = biological target: T6, NTF4 (prey, CIC format) (human) (UniProt P34130)
T6 sequence (looked up): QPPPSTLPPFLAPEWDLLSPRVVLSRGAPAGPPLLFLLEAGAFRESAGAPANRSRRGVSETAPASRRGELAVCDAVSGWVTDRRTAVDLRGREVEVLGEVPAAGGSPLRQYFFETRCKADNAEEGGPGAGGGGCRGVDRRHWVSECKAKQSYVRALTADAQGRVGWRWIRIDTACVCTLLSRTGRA

HBB (prey, CIC format) (human), sequence (P68871 whole entry): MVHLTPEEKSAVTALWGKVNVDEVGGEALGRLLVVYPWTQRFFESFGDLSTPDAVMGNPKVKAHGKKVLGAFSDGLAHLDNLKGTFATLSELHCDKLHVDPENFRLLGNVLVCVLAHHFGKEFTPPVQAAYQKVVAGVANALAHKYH

B1: ORC2 (bait, IN format) (protein, human, UniProt Q13416 1-577, looked up)
chain: MSKPELKEDKMLEVHFVGDDDVLNHILDREGGAKLKKERAQLLVNPKKIIKKPEYDLEEDDQEVLKDQNYVEIMGRDVQESLKNGSATGGGNKVYSFQNRKHSEKMAKLASELAKTPQKSVSFSLKNDPEITINVPQSSKGHSASDKVQPKNNDKSEFLSTAPRSLRKRLIVPRSHSDSESEYSASNSEDDEGVAQEHEEDTNAVIFSQKIQAQNRVVSAPVGKETPSKRMKRDKTSDLVEEYFEAHSSSKVLTSDRTLQKLKRAKLDQQTLRNLLSKVSPSFSAELKQLNQQYEKLFHKWMLQLHLGFNIVLYGLGSKRDLLERFRTTMLQDSIHVVINGFFPGISVKSVLNSITEEVLDHMGTFRSILDQLDWIVNKFKEDSSLELFLLIHNLDSQMLRGEKSQQIIGQLSSLHNIYLIASIDHLNAPLMWDHAKQSLFNWLWYETTTYSPYTEETSYENSLLVKQSGSLPLSSLTHVLRSLTPNARGIFRLLIKYQLDNQDNPSYIGLSFQDFYQQCREAFLVNSDLTLRAQLTEFRDHKLIRTKKGTDGVEYLLIPVDNGTLTDFLEKEEEEA
With B1 the PLU mean [1] was 0.227, the PLU mean [2] was 0.297 and the PLU mean [3] was 0.119. For the same binder, the PLU mean [4] was 0.43.

B2: PTPN11 (bait, IN format) (enzyme, human, UniProt Q06124 1-593, looked up)
chain: MTSRRWFHPNITGVEAENLLLTRGVDGSFLARPSKSNPGDFTLSVRRNGAVTHIKIQNTGDYYDLYGGEKFATLAELVQYYMEHHGQLKEKNGDVIELKYPLNCADPTSERWFHGHLSGKEAEKLLTEKGKHGSFLVRESQSHPGDFVLSVRTGDDKGESNDGKSKVTHVMIRCQELKYDVGGGERFDSLTDLVEHYKKNPMVETLGTVLQLKQPLNTTRINAAEIESRVRELSKLAETTDKVKQGFWEEFETLQQQECKLLYSRKEGQRQENKNKNRYKNILPFDHTRVVLHDGDPNEPVSDYINANIIMPEFETKCNNSKPKKSYIATQGCLQNTVNDFWRMVFQENSRVIVMTTKEVERGKSKCVKYWPDEYALKEYGVMRVRNVKESAAHDYTLRELKLSKVGQGNTERTVWQYHFRTWPDHGVPSDPGGVLDFLEEVHHKQESIMDAGPVVVHCSAGIGRTGTFIVIDILIDIIREKGVDCDIDVPKTIQMVRSQRSGMVQTEAQYRFIYMAVQHYIETLQRRIEEEQKSKRKGHEYTNIKYSLADQTSGDQSPLPPCTPTPPCAEMREDSARVYENVGLMQQQKSFR
B2 gave a PLU mean [5] of 0.474.

B3: IFIT1 (bait, IN format) (protein, human, UniProt P09914 1-478, looked up)
chain: MSTNGDDHQVKDSLEQLRCHFTWELSIDDDEMPDLENRVLDQIEFLDTKYSVGIHNLLAYVKHLKGQNEEALKSLKEAENLMQEEHDNQANVRSLVTWGNFAWMYYHMGRLAEAQTYLDKVENICKKLSNPFRYRMECPEIDCEEGWALLKCGGKNYERAKACFEKVLEVDPENPESSAGYAISAYRLDGFKLATKNHKPFSLLPLRQAVRLNPDNGYIKVLLALKLQDEGQEAEGEKYIEEALANMSSQTYVFRYAAKFYRRKGSVDKALELLKKALQETPTSVLLHHQIGLCYKAQMIQIKEATKGQPRGQNREKLDKMIRSAIFHFESAVEKKPTFEVAHLDLARMYIEAGNHRKAEENFQKLLCMKPVVEETMQDIHFHYGRFQEFQKKSDVNAIIHYLKAIKIEQASLTRDKSINSLKKLVLRKLRRKALDLESLSLLGFVYKLEGNMNEALEYYERALRLAADFENSVRQGP
In the case of B3, the PLU mean [6] is reported as 0.676 and the PLU mean [7] is reported as 0.328.

B4: BDNF (bait, IN format) (ligand, human, UniProt P23560 19-247, looked up)
chain: APMKEANIRGQGGLAYPGVRTHGTLESVNGPKAGSRGLTSLADTFEHVIEELLDEDQKVRPNEENNKDADLYTSRVMLSSQVPLEPPLLFLLEEYKNYLDAANMSMRVRRHSDPARRGELSVCDSISEWVTAADKKTAVDMSGGTVTVLEKVPVSKGQLKQYFYETKCNPMGYTKEGCRGIDKRHWNSQCRTTQSYVRALTMDSKKRIGWRFIRIDTSCVCTLTIKRGR
For B4, the PLU mean [8] was 0.19, the PLU mean [9] was 0.22 and the PLU mean [10] was 0.629.
